Experiments:
[1] = test system: PSMA-expressing LNCaP cancer xenografts; settings: mouse, in vivo
Experimental: (§1) LNCaP cell line was obtained from ATCC (LNCaP clone FGC, CRL-1740). […] Cells were cultured in PRM I 1640 medium supplemented with 10% FBS, penicillin (100 U/mL) and streptomycin (100 μg/mL) at 37° C. in a humidified incubator containing 5% CO2. Cells grown to 80-90% confluence were then washed with sterile phosphate-buffered saline (1× PBS pH 7.4) and collected by trypsinization. The collected cells concentration was counted with a Hausser Scientific (Horsham, Pa.) Hemacytometer.
(§2) Imaging and biodistribution experiments were performed using NODSCID 1 L2RγKO male mice. Mice were anesthetized by inhalation with 2% isoflurane in oxygen, and implanted subcutaneously with 1×10^7 LNCaP cells behind left shoulder. Mice were imaged or used in biodistribution studies when the tumor grew up to reach 5-8 mm in diameter during 5-6 weeks.
(§3) PET imaging experiments were conducted using Siemens Inveon micro PET/CT scanner. Each tumor bearing mouse was injected 6-8 MBq of Ga-68 labeled tracer through the tail vein under anesthesia (2% isoflurane in oxygen). The mice were allowed to recover and roam freely in their cage. After 50 min, the mice were sedated again with 2% isoflurane in oxygen inhalation and positioned in the scanner. A 10-min CT scan was conducted first for localization and attenuation correction after segmentation for reconstructing the PET images. Then, a 10-min static PET imaging was performed to determined uptake in tumor and other organs. The mice were kept warm by a heating pad during acquisition. For biodistribution studies, the mice were injected with the radiotracer as described above. The mice was anesthetized with 2% isoflurane inhalation, and euthanized by CO2 inhalation. Blood was withdrawn immediately from the heart, and the organs/tissues of interest were collected. The collected organs/tissues were weighed and counted using a Perkin Elmer (Waltham, Mass.) Wizard2 2480 gamma counter. The uptake in each organ/tissue was normalized to the injected dose using a standard curve, and expressed as the percentage of the injected dose per gram of tissue (% ID/g).
(§4) LNCaP cell line was obtained from ATCC (LNCaP clone FGC, CRL-1740). […] Cells were cultured in PRM I 1640 medium supplemented with 10% FBS, penicillin (100 U/mL) and streptomycin (100 μg/mL) at 37° C. in a humidified incubator containing 5% CO2. Cells grown to 80-90% confluence were then washed with sterile phosphate-buffered saline (1× PBS pH 7.4), and collected by trypsinization. The collected cell concentration was counted with a Hausser Scientific (Horsham, Pa.) Hemacytometer.
(§5) Imaging and biodistribution experiments were performed using NODSCID 1L2RγKO male mice. Mice were anesthetized by inhalation with 2% isoflurane in oxygen, and implanted subcutaneously with 1×10^7 LNCaP cells behind left shoulder. Mice were imaged or used in biodistribution studies when the tumor grew up to reach 5-8 mm in diameter during 5-6 weeks.
(§6) PET imaging experiments were conducted using Siemens Inveon micro PET/CT scanner. Each tumor bearing mouse was injected 6-8 MBq of Ga-68 or F-18 labeled tracer through the tail vein under anesthesia (2% isoflurane in oxygen). The mice were allowed to recover and roam freely in their cage. After 50 min, the mice were sedated again with 2% isoflurane in oxygen inhalation and positioned in the scanner. A 10-min CT scan was conducted first for localization and attenuation correction after segmentation for reconstructing the PET images. Then, a 10-min static PET imaging was performed to determined uptake in tumor and other organs.
(§7) For biodistribution studies, the mice were injected with the radiotracer as described above.

in vivo = settings: male, NODSCID 1L2RγKO, mouse, iv, total radioactivity; for excreta dose per gram or mL at 1 h: Urine uptake
Experimental: as §1, §2, §3, §4, §5, §6, §7

SMILES	Blood: Salivary ratio [1]	Tumor: Blood ratio [1]	Tumor: Kidney ratio [1]	Tumor: Muscle ratio [1]	Tumor: Salivary ratio [1]	tissue uptake at 1 h (in vivo; Adrenal glands uptake) [%ID/g]	tissue uptake at 1 h (in vivo; Blood uptake) [%ID/g]	tissue uptake at 1 h (in vivo; Bone uptake) [%ID/g]	tissue uptake at 1 h (in vivo; Brain uptake) [%ID/g]	tissue uptake at 1 h (in vivo; Fat uptake) [%ID/g]	tissue uptake at 1 h (in vivo; Heart uptake) [%ID/g]	tissue uptake at 1 h (in vivo; Intestine uptake) [%ID/g]	tissue uptake at 1 h (in vivo; Kidneys uptake) [%ID/g]	tissue uptake at 1 h (in vivo; Lacrimal uptake) [%ID/g]	tissue uptake at 1 h (in vivo; Liver uptake) [%ID/g]	tissue uptake at 1 h (in vivo; Lungs uptake) [%ID/g]	tissue uptake at 1 h (in vivo; Muscle uptake) [%ID/g]	tissue uptake at 1 h (in vivo; Pancreas uptake) [%ID/g]	tissue uptake at 1 h (in vivo; Salivary uptake) [%ID/g]	tissue uptake at 1 h (in vivo; Seminal uptake) [%ID/g]	also measured
O=C(O)CCC[C@H](NC(=O)N[C@@H](CCCCNC(=O)[C@H](Cc1c2ccccc2cc2ccccc12)NC(=O)Cc1ccc(CNC(=O)CN2CCN(CC(=O)O)CCN(CC(=O)O)CCN(CC(=O)O)CC2)cc1)C(=O)O)C(=O)O [68Ga-HTK04036, metal not drawn]	3.68 ± 0.41	21.0 ± 8.58	3.02 ± 1.44	139 ± 62.4	75.1 ± 28.2	0.3 ± 0.16	0.69 ± 0.35	0.1 ± 0.03	0.02 ± 0.01	0.09 ± 0.05	0.22 ± 0.12	0.41 ± 0.23	5.82 ± 5	0.06 ± 0.03	0.48 ± 0.67	0.55 ± 0.26	0.11 ± 0.06	0.13 ± 0.07	0.18 ± 0.08	2.08 ± 3.09	tissue uptake at 1 h (in vivo; Spleen uptake): 0.27 ± 0.13 %ID/g; tissue uptake at 1 h (in vivo; Stomach uptake): 0.12 ± 0.11 %ID/g; tissue uptake at 1 h (in vivo; Tail uptake): 0.42 ± 0.18 %ID/g; tissue uptake at 1 h (in vivo; Testes uptake): 0.25 ± 0.14 %ID/g; tissue uptake at 1 h (in vivo; Thyroid uptake): 0.22 ± 0.12 %ID/g; tissue uptake at 1 h (in vivo; Tumor uptake): 12.1 ± 2.15 %ID/g; excreta dose per gram or mL at 1 h (in vivo): 422 ± 163 %ID/g
O=C(O)C[C@H](NC(=O)N[C@@H](CCCCNC(=O)[C@H](Cc1c2ccccc2cc2ccccc12)NC(=O)[C@H]1CC[C@H](CNC(=O)CN2CCN(CC(=O)O)CCN(CC(=O)O)CCN(CC(=O)O)CC2)CC1)C(=O)O)C(=O)O [68Ga-HTK03161, metal not drawn]	5.08 ± 0.62	11.4 ± 1.73	3.03 ± 0.84	89.4 ± 36.1	57.2 ± 7.11	0.41 ± 0.07	1.13 ± 0.19	0.11 ± 0.02	0.02	0.15 ± 0.04	0.32 ± 0.05	0.31 ± 0.09	4.41 ± 1.26	0.12 ± 0.06	0.28 ± 0.05	0.75 ± 0.13	0.15 ± 0.04	0.18 ± 0.03	0.23 ± 0.05	6.22 ± 12.2	tissue uptake at 1 h (in vivo; Spleen uptake): 0.27 ± 0.06 %ID/g; tissue uptake at 1 h (in vivo; Stomach uptake): 0.1 ± 0.04 %ID/g; tissue uptake at 1 h (in vivo; Tail uptake): 0.55 ± 0.1 %ID/g; tissue uptake at 1 h (in vivo; Testes uptake): 0.54 ± 0.51 %ID/g; tissue uptake at 1 h (in vivo; Thyroid uptake): 0.29 ± 0.05 %ID/g; tissue uptake at 1 h (in vivo; Tumor uptake): 12.7 ± 1.91 %ID/g; excreta dose per gram or mL at 1 h (in vivo): 363 ± 155 %ID/g
O=C(O)COC[C@H](NC(=O)N[C@@H](CCCCNC(=O)[C@H](Cc1c2ccccc2cc2ccccc12)NC(=O)[C@H]1CC[C@H](CNC(=O)CN2CCN(CC(=O)O)CCN(CC(=O)O)CCN(CC(=O)O)CC2)CC1)C(=O)O)C(=O)O [68Ga-HTK03187, metal not drawn]	4.27 ± 0.74	32.2 ± 8.53	7.67 ± 2.10	249 ± 61.2	133 ± 14.0	0.26 ± 0.06	0.67 ± 0.1	0.13 ± 0.03	0.02	0.07 ± 0.02	0.19 ± 0.04	0.23 ± 0.05	2.83 ± 0.45	0.09 ± 0.03	0.21 ± 0.05	0.52 ± 0.09	0.09 ± 0.01	0.12 ± 0.02	0.16 ± 0.02	0.65 ± 0.8	tissue uptake at 1 h (in vivo; Spleen uptake): 0.17 ± 0.02 %ID/g; tissue uptake at 1 h (in vivo; Stomach uptake): 0.08 ± 0.05 %ID/g; tissue uptake at 1 h (in vivo; Tail uptake): 0.46 ± 0.1 %ID/g; tissue uptake at 1 h (in vivo; Testes uptake): 0.15 ± 0.03 %ID/g; tissue uptake at 1 h (in vivo; Thyroid uptake): 0.18 ± 0.02 %ID/g; tissue uptake at 1 h (in vivo; Tumor uptake): 21.1 ± 3.62 %ID/g; excreta dose per gram or mL at 1 h (in vivo): 444 ± 192 %ID/g

Reference: patent US11504441B2, “Radiolabeled compounds targeting the prostate-specific membrane antigen” (PROVINCIAL HEALTH SERVICES AUTHORITY, priority 2019, dated 2022)
